Sequences and labels used below:
B1: IKZF1 (parent)
chain: YHSQDRYEFSSHITRGEHRFHMS
B2: STX5 (parent)
chain: RSEFTLMAKRIGKDLSNTFAKLEK
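Note: lentivirally expressed fusions sorted by FACS into six bins by GFP to DsRed ratio, PSI derived from sequencing read proportions per bin multiplied by bin number.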

The first series covers variants of B1. Description: protein stability index of a GFP-peptide fusion (GPS, HEK-293T) (PSI 1-6); higher = more stable. The following applies: c terminus: native.
For YHSQDRYEFSSHITRGEHRFHCS [M22C], the protein stability index came out at 3.14. Turning to YHSQDRYEFSSHITRGEHRFHHS [M22H], the protein stability index turned out to be 1.66.

Take YHSQDRYEFSSHITRGEHRFHWS [M22W]: the protein stability index amounted to 1.65. Turning to YHSQDRYEFSSHITRGEHRFHVS [M22V], the protein stability index stood at 2. Take YHSQDRYEFSSHITRGEHRFHAS [M22A]: the protein stability index amounted to 2.58.

Take YHSQDRYEFSSHITRGEHRFHLS [M22L]: the protein stability index was found to be 1.4. The same measure, in the same setting: with YHSQDRYEFSSHITRGEHRFHES [M22E] the figure was 1.82.

The variants in a further series derive from B2. The series is described as above. As to conditions: c terminus: a fixed tail appended.
In the case of HSEFTLMAKRIGKDLSNTFAKLEK [R1H], the protein stability index was found to be 3.98. Turning to PSEFTLMAKRIGKDLSNTFAKLEK [R1P], the protein stability index came to 2.63.

As to RSEFTLMAKRIGKDLSNTFWKLEK [A20W], the protein stability index is 2.44. Same read-out and setting: with RSEFTLMAKRIGKDLSNTFSKLEK [A20S] the figure was 1.32. For RSEFTLMAKRIGKDLSNTFTKLEK [A20T], the protein stability index was found to be 2.69.

Regarding RSEFTLMIKRIGKDLSNTFAKLEK [A8I], the protein stability index came out at 2.79. RSEFTLMEKRIGKDLSNTFAKLEK [A8E]: the protein stability index was 2.87. As to RSEFTLMYKRIGKDLSNTFAKLEK [A8Y], the protein stability index is 1.85. Take RSEFTLMAKRIGKSLSNTFAKLEK [D14S]: the protein stability index came out at 2.13.

For the variant RSEFTLMAKRIGKELSNTFAKLEK [D14E], the protein stability index amounted to 4.59. Still for that read-out and setting: in the case of RSEFTLMAKRIGKALSNTFAKLEK [D14A] it was 4.25; in that of RSEFTLMAKRILKDLSNTFAKLEK [G12L], 3.53; in that of RSEFTLMAKRIKKDLSNTFAKLEK [G12K], 2.79. As to RSEFTLMAKRIPKDLSNTFAKLEK [G12P], the protein stability index amounted to 3.81. With RSEFTLMAKRIDKDLSNTFAKLEK [G12D], the protein stability index was determined as 2.9. Regarding RSEFTLMAKRIVKDLSNTFAKLEK [G12V], the protein stability index worked out at 1.54. With RSEFTLMAKRIFKDLSNTFAKLEK [G12F], the protein stability index came to 2.15. Regarding RSEFTVMAKRIGKDLSNTFAKLEK [L6V], the protein stability index stood at 2.28. For the variant RSEFTIMAKRIGKDLSNTFAKLEK [L6I], the protein stability index is 3.08. Same read-out and setting: with RSEFTRMAKRIGKDLSNTFAKLEK [L6R] the figure was 3.66; with RSEATLMAKRIGKDLSNTFAKLEK [F4A], 2.48; with RSEGTLMAKRIGKDLSNTFAKLEK [F4G], 3.64. Turning to RSEETLMAKRIGKDLSNTFAKLEK [F4E], the protein stability index worked out at 4.58.

Consider RSECTLMAKRIGKDLSNTFAKLEK [F4C], for which the protein stability index came out at 2.65. For RSEDTLMAKRIGKDLSNTFAKLEK [F4D], the protein stability index came to 3.88.

As to RSENTLMAKRIGKDLSNTFAKLEK [F4N], the protein stability index was 2.98.

RSEFTLMAKRIGKDLSNTFAKLDK [E23D]: the protein stability index was found to be 2.2. As for RSEFTLMAKRIGKDLSNTFAKLCK [E23C], the protein stability index was 3.47.

With RSEFTLMAKRIGKDLSNTFAKLWK [E23W], the protein stability index was 2.37. Still for that read-out and setting: in the case of RSEFTLMAKRIGPDLSNTFAKLEK [K13P] it was 2.54; in that of RSEFTLMAKRIGSDLSNTFAKLEK [K13S], 2.55. The same measure, in the same setting: with RSEFTLMAKRIGNDLSNTFAKLEK [K13N] the figure was 2.06; with RSEFTLMAKRIGADLSNTFAKLEK [K13A], 1.49; with RFEFTLMAKRIGKDLSNTFAKLEK [S2F], 2.72.

RSEFTLMAKRIGKDLSNTFAFLEK [K21F]: the protein stability index is 2.61. The same measure, in the same setting: with RSEFTLMAKRIGKDLSNTFATLEK [K21T] the figure was 2.01. For the variant RSEFTLMAKRIGKDLSNTFAQLEK [K21Q], the protein stability index amounted to 2.8.

RSEFTLMAKWIGKDLSNTFAKLEK [R10W]: the protein stability index amounted to 2.02. RSEFTLMAKFIGKDLSNTFAKLEK [R10F]: the protein stability index was determined as 2.29. Still for that read-out and setting: in the case of RSEFTLMAKKIGKDLSNTFAKLEK [R10K] it was 3.31; in that of RSEFTLMAKTIGKDLSNTFAKLEK [R10T], 1.99; in that of RSEFTLMAKRIGKDLINTFAKLEK [S16I], 3.35.

As for RSEFTLMAKRIGKDLCNTFAKLEK [S16C], the protein stability index was found to be 1.65.

As to RSEFTLMAKRIGKDLKNTFAKLEK [S16K], the protein stability index turned out to be 3.85. On to RSEFTLMAHRIGKDLSNTFAKLEK [K9H], for which the protein stability index was 2.64. Turning to RSEFTLMALRIGKDLSNTFAKLEK [K9L], the protein stability index came out at 1.88. On to RSEFTLMAERIGKDLSNTFAKLEK [K9E], for which the protein stability index was 2.56. For RSEFTLMAWRIGKDLSNTFAKLEK [K9W], the protein stability index is 1.97. In the case of RSEFTLMANRIGKDLSNTFAKLEK [K9N], the protein stability index was found to be 2.63. Take RSEFTLMADRIGKDLSNTFAKLEK [K9D]: the protein stability index was 2.83.

As for RSEFTLMAKRIGKDISNTFAKLEK [L15I], the protein stability index turned out to be 3.43. For RSEFTLMAKRIGKDMSNTFAKLEK [L15M], the protein stability index was determined as 2.72.

For RSEFTLMAKRIGKDVSNTFAKLEK [L15V], the protein stability index was found to be 1.9. As for RSEFTLMAKRIGKDHSNTFAKLEK [L15H], the protein stability index was 2.6. With RSEFTLMAKRIGKDLSNRFAKLEK [T18R], the protein stability index turned out to be 1.77. As to RSEFTLMAKRIGKDLSNMFAKLEK [T18M], the protein stability index came out at 2.63. Same read-out and setting: in the case of RSEFTLMAKRIGKDLSNKFAKLEK [T18K] it was 3.25; in that of RSEFTLMAKRIGKDLSNQFAKLEK [T18Q], 2.02. With RSEFTLMAKRIGKDLSNDFAKLEK [T18D], the protein stability index was found to be 3.07. As for RSYFTLMAKRIGKDLSNTFAKLEK [E3Y], the protein stability index was 2.51.

Consider RSEFTLMAKRIGKDLSTTFAKLEK [N17T], for which the protein stability index came out at 2.75.

For the variant RSEFTLMAKRIGKDLSCTFAKLEK [N17C], the protein stability index came to 2.02.

On to RSEFFLMAKRIGKDLSNTFAKLEK [T5F], for which the protein stability index is 3.04. For RSEFCLMAKRIGKDLSNTFAKLEK [T5C], the protein stability index is 1.8. Still for that read-out and setting: in the case of RSEFTLMAKRIGKDLSNTFAKGEK [L22G] it was 3.27; in that of RSEFTLMAKRIGKDLSNTFAKDEK [L22D], 4.25; in that of RSEFTLMAKRIGKDLSNTFAKTEK [L22T], 2.7. Regarding RSEFTLMAKRIGKDLSNTFAKKEK [L22K], the protein stability index stood at 2.47. With RSEFTLMAKRIGKDLSNTFAKFEK [L22F], the protein stability index came to 2.67.

For RSEFTLCAKRIGKDLSNTFAKLEK [M7C], the protein stability index was 1.01. On to RSEFTLVAKRIGKDLSNTFAKLEK [M7V], for which the protein stability index came out at 2.73.

Take RSEFTLKAKRIGKDLSNTFAKLEK [M7K]: the protein stability index was 3.75. Take RSEFTLMAKRIGKDLSNTFAKLEY [K24Y]: the protein stability index stood at 3.59. For RSEFTLMAKRIGKDLSNTFAKLEQ [K24Q], the protein stability index came to 1.66. Turning to RSEFTLMAKRIGKDLSNTFAKLEN [K24N], the protein stability index was found to be 3.22.

With RSEFTLMAKRIGKDLSNTFAKLED [K24D], the protein stability index was found to be 2.61.

In the case of RSEFTLMAKRIGKDLSNTFAKLEG [K24G], the protein stability index was found to be 4.41.

RSEFTLMAKRIGKDLSNTAAKLEK [F19A]: the protein stability index stood at 2.79. As for RSEFTLMAKRIGKDLSNTIAKLEK [F19I], the protein stability index was 2.24. For RSEFTLMAKRIGKDLSNTYAKLEK [F19Y], the protein stability index came out at 2.38. Same read-out and setting: in the case of RSEFTLMAKRIGKDLSNTWAKLEK [F19W] it was 2.48; in that of RSEFTLMAKRIGKDLSNTRAKLEK [F19R], 3.88; in that of RSEFTLMAKRLGKDLSNTFAKLEK [I11L], 1.57. In the case of RSEFTLMAKRRGKDLSNTFAKLEK [I11R], the protein stability index stood at 3.81. On the same count and under the same terms, with RSEFTLMAKRSGKDLSNTFAKLEK [I11S] the figure was 3.87. Take RSEFTLMAKRWGKDLSNTFAKLEK [I11W]: the protein stability index amounted to 1.18.

Consider RSEFTLMAKRTGKDLSNTFAKLEK [I11T], for which the protein stability index was 3.13. Consider RSEFTLMAKRYGKDLSNTFAKLEK [I11Y], for which the protein stability index worked out at 2.14. As to RSEFTLMAKRKGKDLSNTFAKLEK [I11K], the protein stability index amounted to 2.93.

For the origin of these results see the supplement of paper PMC10567573.
